Measurements from patent US8026218 (UNIVERSITY OF ARIZONA, dated 2011).
Read-outs that look alike come from different tables or passages of the source. Bridge positions count the residues as written; N and C are the ends. Square brackets hold non-standard residues; d marks the D form. Ends that are not written are not given here. * marks the point of attachment. O‑Bzl(CF3)2 = C-terminal bis(trifluoromethyl)benzyl ester; NH(3,5-(CF3)2-benzyl) = FC(F)(F)c1cc(CN*)cc(C(F)(F)F)c1; OBzl(3,5-(CF3)2) = FC(F)(F)c1cc(CO*)cc(C(F)(F)F)c1; Phe(4-F) = N[C@@H](Cc1ccc(F)cc1)C(=O)O; Dmt = Cc1cc(O)cc(C)c1C[C@H](N)C(=O)O; Nle = CCCC[C@H](N)C(=O)O

How the values were obtained:
[1] = biological target: T1, human δ opioid receptor (human, UniProt P41143 1-372); experiment: competition vs [3H]DPDPE, membranes of hDOR-transfected HN9.10 cells
T1 construct: whole, on cells; Assayed as membrane preparations of transfected cells; also called hDOR; DOR
T1 sequence (P41143 whole entry, stated change not applied): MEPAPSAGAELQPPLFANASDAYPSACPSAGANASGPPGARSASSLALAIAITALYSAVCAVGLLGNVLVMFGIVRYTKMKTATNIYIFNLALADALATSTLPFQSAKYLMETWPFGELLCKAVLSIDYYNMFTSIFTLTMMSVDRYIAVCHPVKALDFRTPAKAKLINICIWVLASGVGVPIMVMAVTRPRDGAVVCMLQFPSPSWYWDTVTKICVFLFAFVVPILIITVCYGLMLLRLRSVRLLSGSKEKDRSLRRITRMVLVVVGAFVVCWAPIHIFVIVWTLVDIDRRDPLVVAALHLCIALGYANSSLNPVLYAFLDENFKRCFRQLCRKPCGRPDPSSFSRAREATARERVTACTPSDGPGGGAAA

[2] = biological target: T2, rat NK1 receptor (rat, UniProt P14600 1-407); experiment: competition vs [3H]substance P, membranes of rNK1-transfected CHO cells
T2 construct: whole, on cells; Assayed as membrane preparations of transfected CHO cells; also called rNK1; rNK-1
T2 sequence (P14600 whole entry): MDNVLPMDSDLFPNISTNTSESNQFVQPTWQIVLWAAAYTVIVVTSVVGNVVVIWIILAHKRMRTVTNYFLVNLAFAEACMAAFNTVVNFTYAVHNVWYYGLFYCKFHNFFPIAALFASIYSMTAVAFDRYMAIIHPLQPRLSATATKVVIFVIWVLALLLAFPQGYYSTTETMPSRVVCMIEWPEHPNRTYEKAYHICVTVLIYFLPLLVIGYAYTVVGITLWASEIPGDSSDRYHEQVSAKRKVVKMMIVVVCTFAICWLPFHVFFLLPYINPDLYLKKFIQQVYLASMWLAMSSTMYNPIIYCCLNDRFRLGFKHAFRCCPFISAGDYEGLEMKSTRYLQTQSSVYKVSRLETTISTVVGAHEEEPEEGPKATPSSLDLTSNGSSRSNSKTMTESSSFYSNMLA

[3] = biological target: T1, human δ opioid receptor; experiment: ratio of Ki at rMOR to Ki at hDOR
[4] = biological target: T3, rat µ opioid receptor (rat, UniProt P33535 1-398); experiment: competition vs [3H]DAMGO, membranes of rMOR-transfected HN9.10 cells
T3 construct: whole, on cells; Assayed as membrane preparations of transfected cells; also called rMOR; MOR
T3 sequence (P33535 whole entry): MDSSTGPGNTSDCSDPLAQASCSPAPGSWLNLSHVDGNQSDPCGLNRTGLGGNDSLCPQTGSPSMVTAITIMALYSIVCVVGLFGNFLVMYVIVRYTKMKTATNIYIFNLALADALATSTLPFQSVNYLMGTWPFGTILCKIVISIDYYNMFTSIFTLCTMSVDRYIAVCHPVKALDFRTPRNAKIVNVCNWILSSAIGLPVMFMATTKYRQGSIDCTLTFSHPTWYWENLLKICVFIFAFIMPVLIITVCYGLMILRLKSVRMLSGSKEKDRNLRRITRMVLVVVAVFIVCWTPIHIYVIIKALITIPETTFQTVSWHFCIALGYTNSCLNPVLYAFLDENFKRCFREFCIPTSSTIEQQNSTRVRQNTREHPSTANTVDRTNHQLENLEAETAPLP

[5] = biological target: guinea pig NK1 receptor (guinea pig, UniProt P30547 1-407); experiment: cell-based or functional assay
Target sequence in this assay (P30547 whole entry): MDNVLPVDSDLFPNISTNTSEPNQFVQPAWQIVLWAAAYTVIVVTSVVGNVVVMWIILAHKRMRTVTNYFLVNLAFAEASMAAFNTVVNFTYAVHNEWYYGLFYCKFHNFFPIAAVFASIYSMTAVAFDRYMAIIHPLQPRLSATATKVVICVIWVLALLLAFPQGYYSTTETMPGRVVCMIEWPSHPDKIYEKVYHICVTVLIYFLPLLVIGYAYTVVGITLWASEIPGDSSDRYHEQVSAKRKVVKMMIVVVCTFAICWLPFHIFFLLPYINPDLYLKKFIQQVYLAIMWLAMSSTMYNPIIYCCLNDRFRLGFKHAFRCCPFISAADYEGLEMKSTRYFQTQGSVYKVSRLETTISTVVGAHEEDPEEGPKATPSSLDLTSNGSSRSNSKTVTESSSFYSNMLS

[6] = biological target: µ opioid receptor of the guinea pig isolated ileum (guinea pig); experiment: cell-based or functional assay
[7] = biological target: T1, human δ opioid receptor; experiment: cell-based or functional assay
[8] = biological target: T3, rat µ opioid receptor; experiment: cell-based or functional assay
[9] = biological target: T4, µ opioid receptor of the guinea pig isolated ileum (guinea pig, UniProt P97266 1-98); experiment: cell-based or functional assay
T4 sequence (P97266 whole entry): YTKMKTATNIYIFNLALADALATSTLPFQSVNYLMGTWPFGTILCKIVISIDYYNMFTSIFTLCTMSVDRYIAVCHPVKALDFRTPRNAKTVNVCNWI

[10] = biological target: T5, human δ opioid receptor (human, UniProt P41143 1-372); experiment: competition vs [3H]DPDPE, hDOR cell membranes
T5 construct: whole, on cells; membrane preparations of the transfected cells were used; also called hDOR; DOR
T5 sequence (P41143 whole entry, stated change not applied): as the sequence (P41143 whole entry, stated change not applied) above

[11] = biological target: T6, human NK1 receptor (human, UniProt P25103 1-407); experiment: competition vs [3H]Substance P, hNK1 CHO cell membranes
T6 construct: whole, on cells; membrane preparations of the transfected cells were used; also called hNK1; human neurokinin-1 receptor
T6 sequence (P25103 whole entry): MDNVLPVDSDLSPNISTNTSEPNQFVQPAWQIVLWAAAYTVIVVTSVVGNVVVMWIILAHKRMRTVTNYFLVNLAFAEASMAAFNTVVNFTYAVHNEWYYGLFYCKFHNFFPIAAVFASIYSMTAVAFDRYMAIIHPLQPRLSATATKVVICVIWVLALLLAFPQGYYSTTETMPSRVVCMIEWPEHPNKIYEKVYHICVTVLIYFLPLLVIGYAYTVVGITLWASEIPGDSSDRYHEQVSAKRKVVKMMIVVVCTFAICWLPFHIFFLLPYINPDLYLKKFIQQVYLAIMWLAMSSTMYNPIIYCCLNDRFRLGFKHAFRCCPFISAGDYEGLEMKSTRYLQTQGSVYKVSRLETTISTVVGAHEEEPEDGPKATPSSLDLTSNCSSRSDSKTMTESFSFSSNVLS

[12] = biological target: T5, human δ opioid receptor; experiment: cell-based or functional assay; remark: listed apart in the source
[13] = biological target: T7, rat NK1 receptor (rat, UniProt P14600 1-407); experiment: competition vs [3H]Substance P, rNK1 CHO cell membranes
T7 construct: whole, on cells; membrane preparations of the transfected cells were used; also called rNK1; rNK-1
T7 sequence (P14600 whole entry): as the sequence (P14600 whole entry) above

[14] = biological target: T6, human NK1 receptor; experiment: competition vs [3H]Substance P, hNK1 CHO cell membranes; remark: listed apart in the source
[15] = biological target: T8, rat µ opioid receptor (rat, UniProt P33535 1-398); experiment: competition vs [3H]DAMGO, rMOR cell membranes
T8 construct: whole, on cells; membrane preparations of the transfected cells were used; also called rMOR; MOR
T8 sequence (P33535 whole entry): as the sequence (P33535 whole entry) above

[16] = biological target: T9, guinea pig NK1 receptor (guinea pig, UniProt P30547 1-407); experiment: cell-based or functional assay; remark: listed apart in the source
T9 sequence (P30547 whole entry): as the sequence (P30547 whole entry) above

[17] = biological target: T10, µ opioid receptor of the guinea pig isolated ileum (guinea pig, UniProt P97266 1-98); experiment: cell-based or functional assay; remark: listed apart in the source
T10 sequence (P97266 whole entry): as the sequence (P97266 whole entry) above

[18] = biological target: T5, human δ opioid receptor; experiment: competition vs [3H]DPDPE, hDOR cell membranes; remark: listed apart in the source
[19] = biological target: T4, µ opioid receptor of the guinea pig …; experiment: cell-based or functional assay; remark: listed apart in the source
[20] = biological target: T5, human δ opioid receptor; experiment: competition vs [3H]DPDPE, hDOR cell membranes; remark: listed apart in the source
[21] = biological target: T7, rat NK1 receptor; experiment: competition vs [3H]Substance P, rNK1 CHO cell membranes; remark: listed apart in the source
[22] = biological target: T9, guinea pig NK1 receptor; experiment: cell-based or functional assay; remark: listed apart in the source
[23] = biological target: T10, µ opioid receptor of the guinea pig …; experiment: cell-based or functional assay; remark: listed apart in the source
[24] = biological target: T6, human NK1 receptor; experiment: competition vs [3H]Substance P, hNK1 CHO cell membranes; remark: listed apart in the source

B1: H-Tyr-D-Ala-Gly-Phe-Gly-Pro-Leu-Trp-O-3,5-Bzl(CF3)2 (peptide)
peptide: H-Y[dA]GFGPLW-{OBzl(3,5-(CF3)2)}
modifications: also: TFA salt
notes: TFA salt; also called TY006
Q: Which results are given for B1?
A: Ki [1]: 36.1 nM; LogIC50 [1]: -7.11; IC50 [2]: 15.6 nM; LogIC50 [2]: -7.83; Ki(µ)/Ki(δ) [3]: 0.75; Ki [4]: 27 nM; LogIC50 [4]: -7.24; Substance P GPI agonist (A50), contraction relative to KCl [5]: 0 % at 1 µM; Substance P GPI antagonist Ke [5]: 5.4 nM; GPI (µ) opioid agonist IC50 [6]: 384 nM; [35S]GTP-γ-S binding EC50 [7]: 50.2 nM; [35S]GTP-γ-S binding Emax [7]: 35%; [35S]GTP-γ-S binding LogEC50 [7]: -7.3; [35S]GTP-γ-S binding EC50 [8]: 41.7 nM; [35S]GTP-γ-S binding Emax [8]: 39%; [35S]GTP-γ-S binding LogEC50 [8]: -7.38

B2: H-Tyr-D-Ala-Gly-Phe-D-Phe-Pro-Leu-Trp-O-3,5-Bzl(CF3)2 (peptide)
peptide: H-Y[dA]GF[dF]PLW-{OBzl(3,5-(CF3)2)}
modifications: also: TFA salt
notes: TFA salt; also called TY007
Q: B2 was tested. Which Ki [1] did it give?
A: 93 nM

Q: What about the LogIC50 [1] of the same binder?
A: -6.7

Q: What about the IC50 [2] of the same binder?
A: 66.7 nM

Q: What about the LogIC50 [2] of the same binder?
A: -7.22

Q: And the “Ki(µ)/Ki(δ)” value [3]?
A: 4.1

Q: And the Ki [4]?
A: 381 nM

Q: What about the LogIC50 [4] of the same binder?
A: -6.09

Q: And the “Substance P GPI agonist (A50), contraction relative to KCl” value [5]?
A: 0 % at 1 µM

Q: And the “Substance P GPI antagonist Ke” value [5]?
A: 69.6 nM

Q: And the “GPI (µ) opioid agonist, % at 1 µM” value [6]?
A: 9 % at 1 µM

Q: And the “[35S]GTP-γ-S binding EC50” value [7]?
A: 16.8 nM

Q: And the “[35S]GTP-γ-S binding Emax” value [7]?
A: 26%

Q: And the “[35S]GTP-γ-S binding LogEC50” value [7]?
A: -7.78

Q: What about the “[35S]GTP-γ-S binding EC50” value [8] of the same binder?
A: 345 nM

Q: And the “[35S]GTP-γ-S binding Emax” value [8]?
A: 22%

Q: And the “[35S]GTP-γ-S binding LogEC50” value [8]?
A: -6.46

B3: Tyr-DAla-Gly-Phe-Met-Trp-O-Bzl(CF3)2 (NP38) (peptide)
peptide: Y[dA]GFMW-{O‑Bzl(CF3)2}
Q: With B3 as the binder, how does the “GPI/LMMP µ-agonist IC50” value [9] read?
A: 393 nM

B4: DmtDAlaGlyPheNleProLeuTrpNHBn-2,4-(OMe)2 (peptide)
peptide: YAGFXPLW
modifications: not fully specified; Dmt at 1 (written Y); D-Ala at 2; Nle at 5 (written X); C-terminal dimethoxybenzyl amide (NHBn-2,4-(OMe)2 in Table 39, NH-3,5-Bn(OMe)2 in Table 31)
notes: also called TY054
Q: What does the source list for B4?
A: Ki [10]: 0.15 nM; Ki [11]: 0.95 nM

B5: Tyr[DCysGlyPheNleProCys]TrpNHBn(CF3)2 (peptide)
peptide: Y[dC]GF[Nle]PCW-{NH(3,5-(CF3)2-benzyl)}
modifications: disulfide 2-7
notes: cyclic; also called TY035; [D-Cys2, Cys7]TY027
Q: B5 was tested. Which “[35S]GTPγS binding EC50” value [12] did it give?
A: 0.02 nM

Q: What about the “[35S]GTPγS binding Emax” value [12] of the same binder?
A: 11%

Q: What about the “[35S]GTPγS binding LogEC50” value [12] of the same binder?
A: -10.8

Q: What about the LogIC50 [13] of the same binder?
A: -7

Q: What about the Ki [14] of the same binder?
A: 0.1 nM

Q: What about the LogIC50 [14] of the same binder?
A: -9.7

Q: What about the Ki [15] of the same binder?
A: 79 nM

Q: And the LogIC50 [15]?
A: -6.8

Q: And the “GPI Substance P antagonist Ke” value [16]?
A: 2.2 nM

Q: And the “GPI (µ) IC50” value [17]?
A: 1000 nM

Q: What about the Ki [18] of the same binder?
A: 1.3 nM

Q: And the LogIC50 [18]?
A: -8.6

B6: Tyr-D-Ala-Gly-pFPhe-O-3′,5′(CF3)2-Bzl (NP62) (peptide)
peptide: Y[dA]G[Phe(4-F)]-{OBzl(3,5-(CF3)2)}
Q: B6 was tested. Which “GPI µ-agonist IC50” value [19] did it give?
A: 208 nM

B7: Tyr-D-Ala-Gly-Trp-O-3′,5′(CF3)2-Bzl (NP44) (peptide)
peptide: Y[dA]GW-{OBzl(3,5-(CF3)2)}
Q: For B7, which “GPI µ-agonist IC50” value [19] is on record?
A: 844 nM

B8: Tyr-DAla-Gly-Phe-Leu-Trp-O-Bzl(CF3)2 (NP37) (peptide)
peptide: Y[dA]GFLW-{O‑Bzl(CF3)2}
Q: With B8 as the binder, how does the “GPI/LMMP µ-agonist IC50” value [9] read?
A: 45.4 nM

B9: DmtDAlaGlyPheMetProLeuTrpOBn(CF3)2 (peptide)
peptide: [Dmt][dA]GFMPLW-{OBzl(3,5-(CF3)2)}
notes: also called TY033
Q: What does the source list for B9?
A: Ki [20]: 0.22 nM; Ki [21]: 0.96 nM; GPI/LMMP Substance P antagonist Ke [22]: 24.5 nM; GPI/LMMP IC50 [23]: 100 nM; Ki [24]: 1.2 nM
